Biological target: git1_human GIT1 (UniProt Q9Y2X7)
Sequence (Q9Y2X7 whole entry): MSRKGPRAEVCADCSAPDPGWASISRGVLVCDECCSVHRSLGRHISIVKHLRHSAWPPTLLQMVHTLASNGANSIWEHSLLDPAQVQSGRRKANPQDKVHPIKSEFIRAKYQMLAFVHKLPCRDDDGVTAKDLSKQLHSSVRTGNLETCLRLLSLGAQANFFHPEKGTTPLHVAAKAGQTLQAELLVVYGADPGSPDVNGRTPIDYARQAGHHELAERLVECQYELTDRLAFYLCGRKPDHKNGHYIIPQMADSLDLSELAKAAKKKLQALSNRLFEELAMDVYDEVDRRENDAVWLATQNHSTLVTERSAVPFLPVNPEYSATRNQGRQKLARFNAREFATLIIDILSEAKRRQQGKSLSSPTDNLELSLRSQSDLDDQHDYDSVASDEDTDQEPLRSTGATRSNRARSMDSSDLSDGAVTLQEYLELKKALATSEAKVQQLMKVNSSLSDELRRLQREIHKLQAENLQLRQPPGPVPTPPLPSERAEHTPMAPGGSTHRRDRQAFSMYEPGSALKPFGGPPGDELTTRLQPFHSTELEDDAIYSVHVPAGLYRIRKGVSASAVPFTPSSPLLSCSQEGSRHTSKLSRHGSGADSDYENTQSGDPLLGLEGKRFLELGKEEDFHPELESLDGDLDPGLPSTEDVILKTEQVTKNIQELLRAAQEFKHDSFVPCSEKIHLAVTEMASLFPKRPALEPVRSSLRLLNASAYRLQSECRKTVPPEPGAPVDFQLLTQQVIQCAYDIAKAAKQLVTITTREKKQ

Sequence of Paxillin (Gallus gallus (Chicken)), P49024 S273D (P49024 whole entry S273D): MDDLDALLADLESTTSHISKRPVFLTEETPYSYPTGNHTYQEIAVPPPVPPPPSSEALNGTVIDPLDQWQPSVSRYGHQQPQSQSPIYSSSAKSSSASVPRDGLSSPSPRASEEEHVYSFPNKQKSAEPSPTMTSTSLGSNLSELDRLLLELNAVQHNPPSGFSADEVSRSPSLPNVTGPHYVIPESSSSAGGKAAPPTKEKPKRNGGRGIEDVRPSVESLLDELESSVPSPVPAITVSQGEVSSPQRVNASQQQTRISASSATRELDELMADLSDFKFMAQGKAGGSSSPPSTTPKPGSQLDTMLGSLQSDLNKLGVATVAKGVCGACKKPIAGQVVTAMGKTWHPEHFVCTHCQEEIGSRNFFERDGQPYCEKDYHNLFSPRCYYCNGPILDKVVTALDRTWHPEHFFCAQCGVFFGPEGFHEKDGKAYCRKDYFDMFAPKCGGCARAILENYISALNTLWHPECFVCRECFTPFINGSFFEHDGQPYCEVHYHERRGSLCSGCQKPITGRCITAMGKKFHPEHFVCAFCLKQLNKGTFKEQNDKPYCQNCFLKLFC
Sequence of Paxillin (Gallus gallus (Chicken)), P49024 S273A (P49024 whole entry S273A): as the sequence (P49024 whole entry S273D) above, with D273A counted along it

Row | Substance | effect of a mutation on the interaction
1 | Paxillin (Gallus gallus (Chicken)), P49024 S273A | decreasing interaction
2 | Paxillin (Gallus gallus (Chicken)), P49024 S273D | increasing interaction

Reference: IntAct's records for PubMed 16717130
